Consider one substance from doi:10.1101/2021.03.28.437443.

For this assay, the target named is uncleaved full-length membrane-anchored HIV-1 JR-FL Env(-) glycoprotein (HIV-1 (strain JR-FL)). Nature of the assay: cryo-EM structure.

For the substance “uncleaved full-length membrane-anchored HIV-1 JR-FL Env(-) glycoprotein (natural protein)”, the stoichiometry N (commonly a count of units in the complex or per binding partner) worked out at 3.
